Experimental data: US6627405 (CURAGEN, dated 2003)

Columns and labels:
Assay in all cases: yeast two hybrid mating, growth on selective medium
[1] = target: T1, Ral GDS (GenBank Acc. No. U14417) (UniProt Q12967 1-914, limits assumed)
T1 construct: Expressed as a Gal4 hybrid in yeast
T1 sequence (looked up): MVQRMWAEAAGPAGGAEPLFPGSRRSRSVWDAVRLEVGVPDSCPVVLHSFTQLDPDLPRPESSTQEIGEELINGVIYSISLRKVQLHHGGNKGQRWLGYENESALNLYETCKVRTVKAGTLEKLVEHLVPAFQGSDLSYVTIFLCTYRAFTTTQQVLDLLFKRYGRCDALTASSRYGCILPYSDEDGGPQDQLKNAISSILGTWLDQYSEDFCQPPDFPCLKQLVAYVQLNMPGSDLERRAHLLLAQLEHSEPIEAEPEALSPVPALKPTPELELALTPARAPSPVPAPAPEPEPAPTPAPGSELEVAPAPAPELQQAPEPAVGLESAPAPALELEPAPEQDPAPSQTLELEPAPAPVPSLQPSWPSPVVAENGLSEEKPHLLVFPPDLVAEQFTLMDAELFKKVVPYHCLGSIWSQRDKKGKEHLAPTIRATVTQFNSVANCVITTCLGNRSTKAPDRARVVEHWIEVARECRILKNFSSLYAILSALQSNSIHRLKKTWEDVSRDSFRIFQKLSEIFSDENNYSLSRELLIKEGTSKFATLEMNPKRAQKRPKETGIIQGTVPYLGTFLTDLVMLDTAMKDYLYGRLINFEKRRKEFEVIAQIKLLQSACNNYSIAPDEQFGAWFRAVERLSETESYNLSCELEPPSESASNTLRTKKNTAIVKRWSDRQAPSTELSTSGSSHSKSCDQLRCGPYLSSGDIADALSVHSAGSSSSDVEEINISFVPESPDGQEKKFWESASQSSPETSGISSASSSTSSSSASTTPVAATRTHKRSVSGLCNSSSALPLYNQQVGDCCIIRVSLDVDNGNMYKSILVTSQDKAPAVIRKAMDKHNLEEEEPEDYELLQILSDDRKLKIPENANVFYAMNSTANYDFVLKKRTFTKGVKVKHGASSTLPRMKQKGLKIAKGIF
Method: (§1) The two mating strains, alpha and a, were then, diluted in YAPD media (Sherman et al., eds., 1991, *Getting Started with Yeast*, Vol. 194, Academic Press, New York), filtered onto nitrocellulose membranes, and incubated at 30 degrees Celsius for 6–8 hours. The cells were then transferred to media selective for the desired diploids, i.e., yeast harboring reporter genes for beta-galactosidase, uracil auxotrophy, and histidine auxotrophy, and expression of the vectors encoding the bait and prey. The mating products were plated on SC (synthetic complete) (Kaiser et al. eds., 1994, *Methods in Genetics*, 1994 ed., Cold Spring Harbor Press, New York, p. 209) media lacking adenine and lysine (to select for successful mating), leucine and tryptophan (to select for expression of genes encoded by both the bait and prey plasmids), and uracil and histidine (to select for protein interactions). This medium is herein referred to as SCS medium, for SC Selective medium.
(§2) No. X03541, Martin-Zanca, et al., 1986, Nature 319: 743–748), EST M62042 (Adams et al., 1991, Science 252: 1651–1656), Ral GDS (GenBank Acc. No. U14417, Hofer, et al., 1994, Proc. Natl. Acad. Sci. U.S.A. 91: 11089–11093) or E2F (GenBank Acc. […] No. M92424, Oliner et al., 1994, direct submission), CAS (GenBank Acc. No. U33286, Brinkmann et al., 1995, Proc. Natl. Acad. Sci. U.S.A. 92: 10427–10431), and PA9 (GenBank Acc. No. S82076, Yang et al., 1996, Carcinogenesis 17:563–567) Specifically, lack of growth for p62 and β-tubulin interactions with MDM2 is depicted in FIG. 7.

[2] = target: T2, pRb (GenBank Acc. No. M28419) (UniProt P06400 1-928, limits assumed)
T2 construct: Expressed as a Gal4 hybrid in yeast
T2 sequence (looked up): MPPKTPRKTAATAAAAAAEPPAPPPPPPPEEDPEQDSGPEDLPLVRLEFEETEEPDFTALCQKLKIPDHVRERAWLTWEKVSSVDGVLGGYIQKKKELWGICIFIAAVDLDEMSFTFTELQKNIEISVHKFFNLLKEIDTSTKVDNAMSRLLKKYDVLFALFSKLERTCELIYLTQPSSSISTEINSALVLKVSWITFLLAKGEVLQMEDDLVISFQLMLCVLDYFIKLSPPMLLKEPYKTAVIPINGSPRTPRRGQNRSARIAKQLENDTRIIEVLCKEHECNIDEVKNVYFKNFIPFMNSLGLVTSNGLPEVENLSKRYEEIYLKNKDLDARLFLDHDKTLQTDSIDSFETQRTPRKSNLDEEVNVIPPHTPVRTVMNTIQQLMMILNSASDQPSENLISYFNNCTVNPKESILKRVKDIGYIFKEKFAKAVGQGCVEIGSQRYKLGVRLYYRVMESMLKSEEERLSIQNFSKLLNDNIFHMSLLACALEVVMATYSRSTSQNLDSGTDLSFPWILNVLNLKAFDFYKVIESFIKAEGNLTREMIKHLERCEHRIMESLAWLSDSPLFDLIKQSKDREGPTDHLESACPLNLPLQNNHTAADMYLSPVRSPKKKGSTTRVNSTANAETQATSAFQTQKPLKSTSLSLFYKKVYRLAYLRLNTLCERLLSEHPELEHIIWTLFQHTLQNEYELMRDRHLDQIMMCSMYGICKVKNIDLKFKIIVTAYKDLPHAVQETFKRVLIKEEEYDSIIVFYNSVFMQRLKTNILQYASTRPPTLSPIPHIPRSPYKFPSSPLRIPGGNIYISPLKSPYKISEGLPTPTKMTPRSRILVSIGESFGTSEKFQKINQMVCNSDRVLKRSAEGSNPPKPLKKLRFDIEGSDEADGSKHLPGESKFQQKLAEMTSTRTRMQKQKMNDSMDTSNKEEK
Method: as §1, §2

[3] = target: T3, CAS (GenBank Acc. No. U33286) (UniProt P55060 1-971, limits assumed)
T3 construct: Bait hybrid expressed in yeast strain N106r
T3 sequence (looked up): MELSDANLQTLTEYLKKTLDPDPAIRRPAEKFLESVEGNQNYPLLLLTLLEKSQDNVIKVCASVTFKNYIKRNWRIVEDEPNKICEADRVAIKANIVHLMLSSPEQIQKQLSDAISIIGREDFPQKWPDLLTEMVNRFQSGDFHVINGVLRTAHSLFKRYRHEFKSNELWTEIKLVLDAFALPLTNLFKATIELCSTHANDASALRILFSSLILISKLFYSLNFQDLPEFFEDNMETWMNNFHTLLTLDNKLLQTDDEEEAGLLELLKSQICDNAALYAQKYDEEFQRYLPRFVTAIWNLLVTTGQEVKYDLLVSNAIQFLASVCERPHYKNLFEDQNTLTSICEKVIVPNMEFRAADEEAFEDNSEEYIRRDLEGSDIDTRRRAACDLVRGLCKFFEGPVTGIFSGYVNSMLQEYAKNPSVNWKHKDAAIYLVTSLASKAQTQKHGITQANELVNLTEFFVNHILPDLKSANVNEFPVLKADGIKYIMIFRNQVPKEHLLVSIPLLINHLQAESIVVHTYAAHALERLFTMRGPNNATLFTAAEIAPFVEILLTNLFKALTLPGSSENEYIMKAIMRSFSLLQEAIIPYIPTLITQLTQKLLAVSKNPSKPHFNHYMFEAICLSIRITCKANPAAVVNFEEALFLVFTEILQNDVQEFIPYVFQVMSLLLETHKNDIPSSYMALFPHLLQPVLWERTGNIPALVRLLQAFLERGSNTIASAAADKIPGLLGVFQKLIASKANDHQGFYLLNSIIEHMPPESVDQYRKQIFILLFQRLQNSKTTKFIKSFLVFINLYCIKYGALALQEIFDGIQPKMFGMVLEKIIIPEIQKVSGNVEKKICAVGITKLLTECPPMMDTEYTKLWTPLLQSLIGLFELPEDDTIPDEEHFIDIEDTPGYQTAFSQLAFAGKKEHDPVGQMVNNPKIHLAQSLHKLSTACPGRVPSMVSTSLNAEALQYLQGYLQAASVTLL
Method: as §1, §2

[4] = target: T4, MDM2 (GenBank Acc. No. M92424) (UniProt Q00987 1-491, limits assumed)
T4 construct: Bait hybrid expressed in yeast strain N106r; also called MDM2 bait
T4 sequence (Q00987 whole entry, one chain of several): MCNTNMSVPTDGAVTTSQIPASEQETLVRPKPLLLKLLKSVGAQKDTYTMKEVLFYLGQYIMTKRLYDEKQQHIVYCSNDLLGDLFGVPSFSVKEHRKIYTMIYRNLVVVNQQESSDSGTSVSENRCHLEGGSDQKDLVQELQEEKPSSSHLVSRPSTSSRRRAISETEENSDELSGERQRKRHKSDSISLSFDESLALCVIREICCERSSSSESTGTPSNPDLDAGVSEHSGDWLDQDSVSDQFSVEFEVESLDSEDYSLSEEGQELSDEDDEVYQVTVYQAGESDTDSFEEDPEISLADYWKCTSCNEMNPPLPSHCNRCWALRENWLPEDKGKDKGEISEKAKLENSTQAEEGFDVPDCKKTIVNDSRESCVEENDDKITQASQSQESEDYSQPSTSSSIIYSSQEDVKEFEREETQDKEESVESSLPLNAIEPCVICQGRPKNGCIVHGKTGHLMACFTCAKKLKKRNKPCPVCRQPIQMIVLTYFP
Method: as §1, §2

Row | Binder | binding result [1] | binding result [2] | binding result [3] | binding result [4]
1 | 53BP2 bait fragment, amino acids 704-1005 (C-terminus) of human 53BP2 (other, also called BBP; not shown: residues not) SPGLDYEPEGVPDNSPNLQNNPEEPNPEAPHVLDVYLEEYPPYPPPPYPSGEPEGPGEDSVSMRPPEITGQVSLPPGKRTNLRKTGSERIAHGMRVKFNPLALLLDSSLEGEFDLVQRIIYEVDDPSLPNDEGITALHNAVCAGHTEIVKFLVQFGVNVNAADSDGWTPLHCAASCNNVQVCKFLVESGAAVFAMTYSDMQTAADKCEEMEEGYTQCSQFLYGVQEKMGIMNKGVIYALWDYEPQNDDELPMKEGDCMTIIHREDEDEIEWWWARLNDKEGYVPRNLLGLYPRIKPRQRSLA | no binding | no binding |  | 
2 | p62 prey sequence, amino acids 275-443 (other, yeast) NGVPEPSRGRGVPVRGRGAAPPPPPVPRGRGVGPPRGALVRGTPVRGAITRGATVTRGVPPPPTVRGAPAPRARTAGIQRIPLPPPPAPETYEEYGYDDTYAEQSYEGYEGYYSQSQGDSEYYDYGHGEVQDSYEAYGQDDWNGTRPSLKAPPARPVKGAYREHPYGRY |  |  | no binding | no binding
